Measured values from PMC2191985 (The Journal of Experimental Medicine, 1995).

Columns and labels:
[1] = target: 10-kD NH2-terminal fragment of the invariant chain (Ii-p10) (mouse); test: SEC + co-IP
[2] = target: the molecule itself; test: SEC + co-IP

Sequence of 10-kD NH2-terminal fragment of the invariant chain (Ii-p10) (domain or fragment) (P04441 whole entry, change not shown, the tested form may be a part): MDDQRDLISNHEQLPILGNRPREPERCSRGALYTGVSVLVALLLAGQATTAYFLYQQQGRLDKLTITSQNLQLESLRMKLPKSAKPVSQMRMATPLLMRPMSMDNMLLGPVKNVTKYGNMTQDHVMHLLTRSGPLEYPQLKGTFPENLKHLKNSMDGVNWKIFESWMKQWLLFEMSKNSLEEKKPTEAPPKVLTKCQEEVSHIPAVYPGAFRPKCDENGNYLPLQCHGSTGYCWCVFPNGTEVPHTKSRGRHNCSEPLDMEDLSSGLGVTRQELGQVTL

| stoichiometry N [1] | Molecule | stoichiometry N [2] |
| --- | --- | --- |
| 3 | 10-kD NH2-terminal fragment of the invariant chain (Ii-p10) (domain or fragment) | – |
| – | intact invariant (Ii) chain (natural protein, mouse, UniProt P04441-2 1-215, looked up) MDDQRDLISNHEQLPILGNRPREPERCSRGALYTGVSVLVALLLAGQATTAYFLYQQQGRLDKLTITSQNLQLESLRMKLPKSAKPVSQMRMATPLLMRPMSMDNMLLGPVKNVTKYGNMTQDHVMHLLTRSGPLEYPQLKGTFPENLKHLKNSMDGVNWKIFESWMKQWLLFEMSKNSLEEKKPTEAPPKEPLDMEDLSSGLGVTRQELGQVTL | 3 |
